Tests used:
[1] = biological target: activated factor IX (FIXa); test: cell-based or functional assay
native rVWF 133P1 = biological target: T1, native rVWF 133P1 (human, UniProt P04275 764-2813); test: SPR (Biacore 3000): native rVWF 133P1 immobilized on CM5 chip, FVIII sample in flow, 1:1 Langmuir model
T1 construct: mature; Starting material for PEGylation; multimers of the mature monomer (about 260 kDa on reducing SDS-PAGE); also called unmodified rVWF

B1: FVIII control (mock preparation, not PEGylated) (other)
chain: ATRRYYLGAVELSWDYMQSDLGELPVDARFPPRVPKSFPFNTSVVYKKTLFVEFTDHLFNIAKPRPPWMGLLGPTIQAEVYDTVVITLKNMASHPVSLHAVGVSYWKASEGAEYDDQTSQREKEDDKVFPGGSHTYVWQVLKENGPMASDPLCLTYSYLSHVDLVKDLNSGLIGALLVCREGSLAKEKTQTLHKFILLFAVFDEGKSWHSETKNSLMQDRDAASARAWPKMHTVNGYVNRSLPGLIGCHRKSVYWHVIGMGTTPEVHSIFLEGHTFLVRNHRQASLEISPITFLTAQTLLMDLGQFLLFCHISSHQHDGMEAYVKVDSCPEEPQLRMKNNEEAEDYDDDLTDSEMDVVRFDDDNSPSFIQIRSVAKKHPKTWVHYIAAEEEDWDYAPLVLAPDDRSYKSQYLNNGPQRIGRKYKKVRFMAYTDETFKTREAIQHESGILGPLLYGEVGDTLLIIFKNQASRPYNIYPHGITDVRPLYSRRLPKGVKHLKDFPILPGEIFKYKWTVTVEDGPTKSDPRCLTRYYSSFVNMERDLASGLIGPLLICYKESVDQRGNQIMSDKRNVILFSVFDENRSWYLTENIQRFLPNPAGVQLEDPEFQASNIMHSINGYVFDSLQLSVCLHEVAYWYILSIGAQTDFLSVFFSGYTFKHKMVYEDTLTLFPFSGETVFMSMENPGLWILGCHNSDFRNRGMTALLKVSSCDKNTGDYYEDSYEDISAYLLSKNNAIEPRSFSQNSRHPSQNPPVLKRHQREITRTTLQSDQEEIDYDDTISVEMKKEDFDIYDEDENQSPRSFQKKTRHYFIAAVERLWDYGMSSSPHVLRNRAQSGSVPQFKKVVFQEFTDGSFTQPLYRGELNEHLGLLGPYIRAEVEDNIMVTFRNQASRPYSFYSSLISYEEDQRQGAEPRKNFVKPNETKTYFWKVQHHMAPTKDEFDCKAWAYFSDVDLEKDVHSGLIGPLLVCHTNTLNPAHGRQVTVQEFALFFTIFDETKSWYFTENMERNCRAPCNIQMEDPTFKENYRFHAINGYIMDTLPGLVMAQDQRIRWYLLSMGSNENIHSIHFSGHVFTVRKKEEYKMALYNLYPGVFETVEMLPSKAGIWRVECLIGEHLHAGMSTLFLVYSNKCQTPLGMASGHIRDFQITASGQYGQWAPKLARLHYSGSINAWSTKEPFSWIKVDLLAPMIIHGIKTQGARQKFSSLYISQFIIMYSLDGKKWQTYRGNSTGTLMVFFGNVDSSGIKHNIFNPPIIARYIRLHPTHYSIRSTLRMELMGCDLNSCSMPLGMESKAISDAQITASSYFTNMFATWSPSKARLHLQGRSNAWRPQVNNPKEWLQVDFQKTMKVTGVTTQGVKSLLTSMYVKEFLISSSQDGHQWTLFFQNGKVKVFQGNQDSFTPVVNSLDPPLLTRYLRIHPQSWVHQIALRMEVLGCEAQDLY
Work on B1 yielded a lag phase (min), FIXa-cofactor activity after thrombin activation [1] of 1.13 min, a lag phase (min), FIXa-cofactor activity without thrombin activation [1] of 1.8 min and a maximum FXa (nM), FIXa-cofactor activity after thrombin activation [1] of 33.7 nM. For the same binder, the maximum FXa (nM), FIXa-cofactor activity without thrombin activation [1] was 39.6 nM, the maximum rate (nM FXa/min), FIXa-cofactor activity after thrombin activation [1] was 9.79 nM FXa/min and the maximum rate (nM FXa/min), FIXa-cofactor activity without thrombin activation [1] was 8.8 nM FXa/min. The t1/2 of maximum (min), FIXa-cofactor activity after thrombin activation [1] was 2.85 min, the t1/2 of maximum (min), FIXa-cofactor activity without thrombin activation [1] was 4 min and the Kd (native rVWF 133P1) was 0.55 nM.
